Measurements taken from US20240287172A1 (SCIRHOM, published 2024).
Changes are numbered by the printed parent chain.

T1: hiR2-FL-R543Q-T7 (human, UniProt Q6PJF5 1-856)
T1 sequence: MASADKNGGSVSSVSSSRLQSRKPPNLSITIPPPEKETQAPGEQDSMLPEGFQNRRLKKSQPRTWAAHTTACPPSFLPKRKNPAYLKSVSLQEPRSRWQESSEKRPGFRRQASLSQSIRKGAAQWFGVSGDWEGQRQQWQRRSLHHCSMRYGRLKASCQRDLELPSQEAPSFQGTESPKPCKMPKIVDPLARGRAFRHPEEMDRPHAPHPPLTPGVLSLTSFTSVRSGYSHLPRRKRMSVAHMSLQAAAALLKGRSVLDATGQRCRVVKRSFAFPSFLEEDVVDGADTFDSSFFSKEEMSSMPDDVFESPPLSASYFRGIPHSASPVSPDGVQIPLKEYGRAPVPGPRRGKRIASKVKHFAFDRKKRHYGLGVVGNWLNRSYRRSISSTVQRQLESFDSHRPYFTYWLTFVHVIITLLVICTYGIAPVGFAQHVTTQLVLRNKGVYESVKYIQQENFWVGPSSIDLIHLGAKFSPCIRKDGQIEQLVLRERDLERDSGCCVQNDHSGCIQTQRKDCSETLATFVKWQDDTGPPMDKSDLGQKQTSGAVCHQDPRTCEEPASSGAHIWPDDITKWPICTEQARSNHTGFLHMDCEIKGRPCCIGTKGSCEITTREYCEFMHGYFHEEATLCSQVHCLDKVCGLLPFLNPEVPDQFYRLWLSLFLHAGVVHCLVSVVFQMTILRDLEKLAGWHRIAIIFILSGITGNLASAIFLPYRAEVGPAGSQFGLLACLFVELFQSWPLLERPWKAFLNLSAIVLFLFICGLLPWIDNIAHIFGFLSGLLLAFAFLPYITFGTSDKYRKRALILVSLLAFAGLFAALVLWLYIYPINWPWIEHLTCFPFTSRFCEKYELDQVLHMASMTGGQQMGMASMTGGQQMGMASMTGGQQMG

B1: antibody 5 (antibody, V domains shown)
VH: QVTLKESGPGILQPSQTLSLTCSFSGFSLSTFGMGVGWIRQPSGKGLEWLAHIWWDDEKYYNSALKSRLTISKATSKNQAFLKIANVDTADTATYYCARISNYGSNYWYFNVWGTGTTVTVSS
VL: QVVLTQSPALMSASPGEKVTMTCSAGSSVSCMYWYQQKPGSSPRVLIYDTSNLASGVPARFTGSGSGTSYSLTISRMEAEDAASYYCQQWNSYPLTFGAGTKLELK
notes: mouse IgG, kappa light chain; also called clone #5; purified antibody 5
B2: antibody 43 (antibody, V domains shown)
VH: B1 VH with T3A, P42S, H52N, E58D, S63P, A74D, T75A, S101G, N111D
VL: QIVLTQSPAIMSASPGERVTMTCSANSRISYMYWYQQKPGSSPRLLIYDTSNLASGVPVRFSGSGSGTSYSLTISRMEAEDAATYNCQQWSSYPLTFGAGTKLELK
notes: mouse IgG, kappa light chain; also called clone #43; purified antibody 43
B3: antibody 42 (antibody, V domains shown)
VH: B1 VH with F24L, M34R, S63P, A74D, A80V, K83R, S101Q, N111D
VL: B2 VL with Q1L, R18K, S24G, N26T, Y33F, L45V, M77V, A82V, N86Y, S91N
notes: mouse IgG, kappa light chain; also called clone #42; purified antibody 42
B4: antibody 34 (antibody, V domains shown)
VH: QVTLKESGPGILQPSQTLSLTCSFSGFSLSTFSLGVGWIRQSSGKGLEWLAHIWWDDEKYYNPALKSRLTISKDTSKNQVFLKIANVDAADTATYYCARAYYSKSYYALDYWGQGTSVTVSS
VL: DIQMTQSPSSLSASLGERVSLTCRASQEISGYLSWLQQKPDGTIKRLIYAASTLDSGVPKRFSGSRSGSDYSLAISSLESEDFADYYCLQYANFPFTFGSGTKLEIK
notes: mouse IgG, kappa light chain; also called clone #34; purified antibody 34

Target: T1, hiR2-FL-R543Q-T7
Experiment: FACS on MEF-DKO cells

Binder | binding result
B1 | no binding (tested: 3 µg/ml)
B2 | no binding (tested: 3 µg/ml)
B3 | no binding (tested: 3 µg/ml)
B4 | no binding (tested: 3 µg/ml)
